What was measured:
Peptide C = target: T1, Peptide C (none); test: indirect ELISA, peptide coated on the plate, HRP goat anti-rabbit antibody, TMB, read at 650 nm; axes without titles
T1 construct: only Peptide C; also called WZN-1C; T217
T1 peptide: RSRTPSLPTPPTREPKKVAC
Experimental: (§1) Antibodies were generated and purified. The antibodies were assayed using a standard indirect ELISA protocol. Briefly, peptide antigens corresponding to SEQ ID NOs: 74-81 were diluted to 1 μg/ml in PBS and plated onto a Greiner Bio One Microlon 96 well plate. Peptide antigens were produced by the manufacturer Abcam. WZN-1A and WZN-1B served as targets. WZN-1C, WZN-1D, WZN-1E, WZN-1F, WZN-1G, and WZN-1H served as negative controls. In the peptide antigen sequences, a phosphorylated residue is indicated by (pT) for phosphorylated threonine or (pS) for phosphorylated serine. After blocking with 1% BSA in PBS pH 7.4, antibodies were serially diluted 1 to 4 with an initial concentration of 1 μg/ml. After incubation, unbound antibodies were washed off with 1×TBST and HRP labeled goat anti-rabbit secondary antibody was applied according to the manufacturer's instructions. Subsequently, unbound secondary antibody was washed off with 1×TBST and 3,3′5,5′-tetramethylbenzidine (TMB) was applied for 5 minutes at room temperature and plates were read at 650 nm. Data is seen in FIG. 3.

full length Tau (Tau441) = target: T2, full length Tau (Tau441) (UniProt P10636-8 1-441); test: indirect ELISA on Tau441, antibody titrated
T2 construct: also called synthetic full length Tau

Peptide A = target: T3, Peptide A (phosphothreonine at position 9 of the peptide (pT217 by the filing's name)); test: indirect ELISA, peptide coated on the plate, HRP goat anti-rabbit antibody, TMB, read at 650 nm; axes without titles
T3 construct: also called WZN-1A; pT217a
T3 peptide: RSRTPSLPTPPTREPKC
Experimental: as §1

Peptide B = target: T4, Peptide B (phosphothreonine at position 6 of the peptide (pT217 by the filing's name)); test: as above
T4 construct: also called WZN-1B; pT217b
T4 peptide: TPSLPTPPTREPKKVAC
Experimental: as §1

Peptide D = target: T5, Peptide D (phosphothreonine at position 4 of the peptide (pT212 by the filing's name)); test: as above
T5 construct: also called WZN-1D; pT212
T5 peptide: RSRTPSLPTPPTREPKC
Experimental: as §1

T2 sequence (P10636 other isoform, or with tags, fused parts or gaps limits assumed): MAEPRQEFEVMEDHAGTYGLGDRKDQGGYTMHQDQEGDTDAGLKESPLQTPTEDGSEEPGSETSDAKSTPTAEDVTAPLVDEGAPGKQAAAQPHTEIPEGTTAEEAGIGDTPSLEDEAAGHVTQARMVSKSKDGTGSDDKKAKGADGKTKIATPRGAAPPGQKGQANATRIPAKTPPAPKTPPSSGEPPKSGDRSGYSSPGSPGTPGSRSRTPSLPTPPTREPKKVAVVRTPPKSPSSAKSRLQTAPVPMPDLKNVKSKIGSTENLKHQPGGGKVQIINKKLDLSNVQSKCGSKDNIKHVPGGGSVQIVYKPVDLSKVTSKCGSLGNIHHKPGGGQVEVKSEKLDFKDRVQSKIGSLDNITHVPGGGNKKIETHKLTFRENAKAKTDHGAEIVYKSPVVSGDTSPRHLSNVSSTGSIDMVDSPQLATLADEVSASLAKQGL

B1: Antibody 6 (antibody, V domains shown)
VH: QSLEESGGRLVTPGTPLTLTCTVSGIDLSTHAMTWVRQAPGKGLEWIGVINPSGSAYYATWVNGRFTISKTSTTVDLKITSPTTGDTAKYFCARDYITAGDYYMDAFDPWGPGTLVTVSS
VL: DIVMTQTPASVSAAVGGTVTIKCQASQSISNQLSWYQQKSGQPPKLLIYRASTLASGVPSRFKGSGSGTEFTLTISDLECADAATYYCQQGYNRDNVDNLFGGGTEVVVKG
notes: Rabbit monoclonal antibody; also called 71H1L2
Q: Does B1 bind (Peptide C)?
A: no binding

Q: Does B1 bind (full length Tau (Tau441))?
A: no binding (tested: 10^4 ng/mL)

B2: Antibody 1 (antibody, V domains shown)
VH: QSLEESGGRLVTPGTPLTLTCTVSGFSLSSQKVGWVRQAPGKGLEWIGIINNYGSTYYASWAKGRFTISKTSTTVDLRITSLTAEDTATYFCARDPDGSIVFDIWGPGTLVTVSL
VL: AQVLTQTASPVSAAVGGTVTINCQSSQSVVYNNRLSWFQQKPGQPPKLLIYGASTLASGVPSRFKGSGSGTQFTLTISDVQCDDAATYYCLGSYDCSSGDCHAFGGGTEVVVKG
Q: Does B2 bind (Peptide C)?
A: no binding

B3: Antibody 4 (antibody, V domains shown)
VH: QSLEESGGRLVTPGTPLTLTCTVSGFSLNNYKVGWVRQAPGKGLEWIGIINYYSQTYYASWAKGRFTISKTSTTVDLKLTSPTTEDTATYFCARDPDGSIVFDIWGPGTLVTVSL
VL: AQVLTQTASPVSAAVGSTVTINCQSSQSVYSNKRLAWFQLKPGQPPKLLIYGASTLASGVPSRFKGSGSGTQFTLTISDVQCDDAATYYCAGGYDCSTGDCWTFGGGTEVVVTG
Q: Does B3 bind (Peptide C)?
A: no binding

B4: Antibody 3 (antibody, V domains shown)
VH: QSVEESGGRLVTPGTPLTLTCTVSGFSLSSYAMIWVRQAPGKGLEWIGFISRSGITYYASWAKGRFTISKTSTTVDLKMTSLTTEDTATYFCAREFGAVGSDYYRDAFNLWGPGTLVTVSS
VL: DIVMTQTPSSVSAAVGGTVTINCQASQNIYSNLAWYQQKPGQRPRLLIYGASNLASGVPSRFKGSRSGTEFTLTISDLECADAATYYCQGYDYSTAGAYPFGGGTAVVVKG
Q: What does the source list for B4?
A: binding result (Peptide A): no binding; binding result (Peptide C): no binding; binding result (Peptide B): no binding; binding result (Peptide D): no binding

B5: Antibody 5 (antibody, V domains shown)
VH: QSVEESGGGLVTPGGTLTLTCTVSGFSLSNYAMSWVRQAPGKGLEWIGFISRSGITYYASWAKGRFTISKTSTTVDLKITSPTTEDTAAYFCAREFGAVGSDYYRDALRLWGPGTLVTVSS
VL: DIVMTQTPSSVSAAVGGTVTIKCQASQSIGSNLAWYQQKPGQPPKLLIYGASTLESGVPSRFKGSGSGTEYTLTISDLECADAATYYCQSYYEGSDIGYAFGGGTEVVVEG
notes: Rabbit monoclonal antibody; also called 62H10L7
Q: Does B5 bind (Peptide C)?
A: no binding

Q: Does B5 bind (full length Tau (Tau441))?
A: no binding (tested: 10^4 ng/mL)

B6: Antibody 2 (antibody, V domains shown)
VH: QSVEESGGRLVTPGTPLTLTCTVSGFSLSSYAMIWVRQAPGKGLEWIGFISRSGITYYASWAKGRFTISKTSTTVDLKMTSLTTEDTATYFCAREFGAVGSDYYRDAFNLWGPGTLVTVSS
VL: DIVMTQTPASVEAAVGGTVTINCQASESINSWLSWYQQKPGQPPNLLIYRASTLASGVPSRFSGGGSGTEYTLTISDLECADAVTYYCQSYYEEDGIGYAFGGGTEVVVEG
notes: Rabbit monoclonal antibody; also called 30H10L2
Q: Which results are given for B6?
A: binding result (Peptide C): no binding; binding result (full length Tau (Tau441)): no binding (tested: 10^4 ng/mL)

B7: PT3 (antibody, V domains shown)
VH: EVKLVESGGDLVKPGGSLKLSCAASGFTFSSYAMSWVRQNPEKRLEWVASISKGGNTYYPNSVKGRFTISRDNARNILYLQMSSLRSEDTALYYCARGWGDYGWFAYWGQVTLVTVSA
VL: DIKMTQSPSSMYASLGERVTITCKASQDINRYLNWFQQKPGKSPKTLIYRANRLLDGVPSRFSGSGSGQDYSLTISSLDYEDMGIYYCLQYDEFPLTFGDGTKLELK
Q: Which “EC50 (read off the curve)” value (full length Tau (Tau441)) does the source give for B7 here?
A: ~200 ng/mL

Reference: patent publication US20240360206A1 (ALZPATH, published 2024)
